Experimental findings from publication PMC10933263 (EMBO Reports, 2024) are described below.

In test [1] the target is bovine adenylyl cyclase AC8, purified, tag-free (bovine) (UniProt E1BQ12).
Test [2] has the same target. This is another data set of the same source.
Test [3] has as its target bovine adenylyl cyclase AC8, purified, tag-free (bovine, UniProt E1BQ12 1-1253). The test is described as follows: cell-based or functional assay.

Regarding “G protein beta gamma subunit (Gβ1γ2) (from UniProt P62871 1-340; P63212 1-71) (complex)”, the inhibition of AC8 adenylyl cyclase activity (cAMP accumulation) by Gβγ, IC50 in test [1] was 0.4 µM.
As to “Calmodulin (from bovine testes, Sigma-Aldrich P1431) (from UniProt P62157 1-149) (natural protein)”, in test [2], the activation of AC8 adenylyl cyclase activity (cAMP accumulation) by CaM in the absence of CaCl2, EC50 came out at 0.0866 µM and the activation of AC8 adenylyl cyclase activity (cAMP accumulation) by CaM in the presence of CaCl2, EC50 worked out at 0.0041 µM.

B1: bovine G protein αs subunit, GTPγS-activated (natural protein, UniProt P04896-1 1-394, looked up)
chain: MGCLGNSKTEDQRNEEKAQREANKKIEKQLQKDKQVYRATHRLLLLGAGESGKSTIVKQMRILHVNGFNGEGGEEDPQAARSNSDGEKATKVQDIKNNLKEAIETIVAAMSNLVPPVELANPENQFRVDYILSVMNVPDFDFPPEFYEHAKALWEDEGVRACYERSNEYQLIDCAQYFLDKIDVIKQDDYVPSDQDLLRCRVLTSGIFETKFQVDKVNFHMFDVGGQRDERRKWIQCFNDVTAIIFVVASSSYNMVIREDNQTNRLQEALNLFKSIWNNRWLRTISVILFLNKQDLLAEKVLAGKSKIEDYFPEFARYTTPEDATPEPGEDPRVTRAKYFIRDEFLRISTASGDGRHYCYPHFTCAVDTENIRRVFNDCRDIIQRMHLRQYELL
Consider B1, for which the “activation of AC8 adenylyl cyclase activity (cAMP accumulation) by GTPγS-bound Gαs, EC50” value in test [3] turned out to be 0.0255 µM.
